Experimental data as given in patent publication US20240052036A1 (Merck Sharp & Dohme, published 2024).

Biological target: T1, recombinant human LAG-3 (rhLAG-3) (human, UniProt P18627 23-450, limits assumed)
T1 construct: also called CD223
T1 sequence (looked up): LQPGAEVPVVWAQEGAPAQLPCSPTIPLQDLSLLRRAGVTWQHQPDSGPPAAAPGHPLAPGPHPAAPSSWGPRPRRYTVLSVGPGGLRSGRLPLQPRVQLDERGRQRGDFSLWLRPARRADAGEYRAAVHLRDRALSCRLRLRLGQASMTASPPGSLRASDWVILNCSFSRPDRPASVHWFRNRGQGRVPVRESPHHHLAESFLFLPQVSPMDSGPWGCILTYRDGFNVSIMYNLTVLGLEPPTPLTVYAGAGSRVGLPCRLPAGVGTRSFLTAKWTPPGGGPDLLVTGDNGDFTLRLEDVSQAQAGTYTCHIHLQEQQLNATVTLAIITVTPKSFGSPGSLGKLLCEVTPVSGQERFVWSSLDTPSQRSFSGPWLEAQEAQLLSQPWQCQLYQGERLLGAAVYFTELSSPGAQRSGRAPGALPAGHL
Test: binding ELISA, immobilized rhLAG-3, 4-parameter fit, relative potency
Experimental: The potency assay assesses anti-LAG3 activity in Formulation A through anti-LAG3 binding to immobilized recombinant human LAG-3 (rhLAG-3). Dose response curves were generated by using serial dilutions of anti-LAG3 reference material and test samples. […] Relative potency was calculated by applying Parallel Line Analysis of dose-response curves in SoftMax® Pro. Potency of a test sample was reported as geometric mean potency relative to the reference material with a geometric standard deviation and 95% confidence interval.

- binding result: binds
B1: anti-LAG3 antibody (SEQ ID NOs: 35 and 57, light and heavy chains) (antibody, human IgG4 S228P, kappa, V domains shown)
VH: QMQLVQSGPEVKKPGTSVKVSCKASGYTFTDYNVDWVRQARGQRLEWIGDINPNDGGTIYAQKFQERVTITVDKSTSTAYMELSSLRSEDTAVYYCARNYRWFGAMDHWGQGTTVTVSS
VL: DIVMTQTPLSLSVTPGQPASISCKASQSLDYEGDSDMNWYLQKPGQPPQLLIYGASNLESGVPDRFSGSGSGTDFTLKISRVEAEDVGVYYCQQSTEDPRTFGGGTKVEIKR
notes: Tested in Formulation A (25 mg/mL antibody, 50 mg/mL sucrose, 0.2 mg/mL polysorbate 80, 10 mM histidine pH 5.8, 70 mM L-arginine-HCl); also called Ab6; anti-LAG3 drug product
